Data taken from patent US20260055369A1, “METHOD FOR GENERATING CELLS OF THE T CELL LINEAGE WITH ENGINEERING BROADLY REACTIVE HUMAN NOTCH LIGAND” (H. Lee Moffitt Cancer Center and Research Institute, Inc., priority 2022, published 2026).
Where a chain is given by its changes, count along the chain named.

B1: Delta^MAX: engineered human DLL4 consensus variant with 10 mutations combining DLL4.v1 and DLL4.v2 mutations; sequence matches SEQ ID NO: 4/10 (protein)
chain: SSVFQLQLQEFINERGVLASGRPCEPGCRTFFRVCLKHFQAVVSPGPCTFGTVSTPVLGTNSFAVRDDSSGGGRNPLQLPLNFTWPGTFSLIIEAWHAPGDDLRPEALPPDALISKFAIQGSLAVGQNWLLDEQTSTLTRLRYSYRVICSDNYYGDNCSRLCKKRNDYFGHYVCQPDGNPSCLPGWTGEYCQQPICLSGCHEQNGYCSKPAECLCRPGWQGRLCNECIPHPGCRHGTCSTPWQCLCDEGWGGLYCDQDLNYCTHHSPCKNGATCRNSGPRSYTCTCRPGYTGVDCELELSECDSNPCRNGGSCKDQEDGYHCLCPPGYYGLHCEHSTLSCADSPCFNGGSCRERNQGANYACECPPNFTGSNCE
B2: WT DLL4: human wild-type Delta-like 4 (N-EGF5, residues 27-400), SEQ ID NO: 1 (protein)
chain: B1 chain with S2G, L81F, F117I, Y168H, P180L, P231N, L245T, Y254F, R275S, P279Q

Tests used:
Notch3 = test: Notch inhibition assay in co-culture format (U2OS Notch3 reporter with HEK293T expressing DLL4, DLL1, JAG1 or JAG2); assay type: cell-based, human; conditions: 3 μM soluble protein; signaling by DLL1, DLL4, JAG1 and JAG2 expressing HEK293T cells
Protocol: For inhibition of Notch ligand-expressing cell lines, on day one, U2OS Notch3 reporter cells (signal receivers) were detached with trypsin-EDTA, washed with DPBS, and added to 6-well plates. On day two, U2OS cells were transfected as described above. On day three, signal receiver cells were detached with trypsin-EDTA, and dilutions of 400,000 cells/mL were prepared in DMEM. On the one hand, soluble DLL4 variants were prepared at 6,000 nM in DPBS, combined in 1:1 dilution with signal receiver cells, and incubated for 15 min at RT. On the other hand, HEK293T-expressing WT DLL4, DLL1, JAG1, JAG2 were detached with trypsin-EDTA, washed with DPBS and 200,000 cells/mL stocks prepared in DMEM. One hundred microliters of both signal senders and pre-blocked signal receivers were combined in cell ratio 1:1 and incubated for 24 hours at 37° C., and 5% CO2. On day four, luciferase firefly and Renilla signals were determined with Dual-Glo luciferase assay system (Promega) using a GloMax luminometer (Promega). Doxycycline at 2 μg/mL was kept for all the conditions. A luminescence ratio firefly:Renilla was determined for every well. Notch activation of each Notch3:ligand pair was normalized to the signal of Notch3 reporters in the presence of HEK293T lacking ligands. Each Notch signaling pair was set at 100% activation and soluble DLL4 treatments were relative to its corresponding pair. […]

[1] = Thermal denaturation by differential scanning fluorimetry (DSF); assay type: physicochemical; conditions: for melting temperature (Tm): N-EGF5, 5 μM in HBS
Protocol: WT DLL4 and Delta^MAX (N-EGF5) were diluted at 5 μM in 20 μL of HBS buffer, and then combined with 10 μM (5×) SYPRO Orange (ThermoFisher Scientific) prepared in 100% DMSO (final DMSO concentration was 0.1%). This mix was equilibrated at room temperature for 30 min. Proteins were analyzed in a 96-well microtiter plate using a StepOnePlus RT-PCR system (Applied Biosystems) applying a continuous heating gradient from 25 to 99° C. with a step of 1% of temperature/min. Data was normalized and represented as the mean of three independent technical replicates. Similar Tm values were obtained for the replica measurements.

Notch1 [2] = test: Notch activation with ligand-oriented coupling on streptavidin plates (CHO-K1 N1-Gal4 reporter); assay type: cell-based; conditions: for EC50: C-terminally biotinylated, streptavidin-coated plates (oriented coupling), 24 hours; for maximum level of Notch1 activation, oriented coupling versus non-specific adsorption: FIG. 3B
Protocol: For CHO-K1 N1-Gal4 reporters, on day one, tissue culture 96-well plates (Coastar) were pre-treated with 100 μL of streptavidin at 10 μg/mL (VWR) for 1 hour at 37° C., washed three times with 200 μL DPBS (Corning), and blocked with 100 μL BSA 2% (VWR) for 1 hour at 37° C. Excess BSA was removed by washing three times with 200 μL DPBS (Corning), and 100 μL of DPBS containing biotinylated DLL4 proteins were coupled to streptavidin for 1 hour at 37° C. (2-fold serial dilutions starting at 50 nM). Non-coupled DLL4 proteins were removed by washing three times with 200 μL DPBS. Next, Notch reporter cells in culture were detached with trypsin-EDTA 0.25% (Gibco), and 30,000 cells in α-MEM media (200 μL) were added into individual wells. Assay plates were incubated for 24 hours at 37° C., and 5% CO2. On day two, CHO-K1 N1-Gal4 cells were washed with 200 μL DPBS, detached with 30 μL of trypsin-EDTA 0.25%, and 200 μL of α-MEM media added. Cells were resuspended and Notch activation was measured as a function of fluorescence by flow cytometry (BD Accuri C6 plus). CHO-K1 N1-Gal4 cells and lacking-ligand wells were used as a negative control. The measurements represent the mean fluorescent intensity as percentage of Notch activation±s.d. of three biological replicates. Notch activation was reference-subtracted from a well coated with a non-related control protein (PA domain of RNF128).

Notch1 [3] = test: Notch activation assay with ligands non-specifically adsorbed to plates (CHO-K1 N1-Gal4 fluorescent reporter); assay type: cell-based; conditions: for EC50 for Notch1 activation: non-specifically adsorbed to tissue culture plates, 24 hours
Protocol: On day one, 2-fold serial dilutions of non-biotinylated DLL4 recombinant proteins (N-EGF5) were prepared in 100 μL of DPBS and used to coat 96-well plates (Coastar) for 1 hour at 37° C. WT DLL4 started at 66.56 ng/mm^2 and Delta^MAX at 0.33 ng/mm^2. Then, the wells were washed three times with 200 μL of DPBS to remove unbound proteins. Next, CHO-K1 N1-Gal4 cells in culture were detached with trypsin-EDTA 0.25% (Gibco) and manually counted. Appropriate dilutions were prepared in α-MEM media to ensure 30,000 CHO-K1 N1-Gal4 cells per well in 200 μL. Ligand-coated plates and reporter cell lines were incubated for 24 hours at 37° C. and 5% CO2. On day two, CHO-K1 N1-Gal4 cells were washed with 200 μL DPBS, detached with 30 μL of trypsin-EDTA 0.25%, and quenched with 200 μL of α-MEM media. Finally, cells were resuspended and H2B-mCitrine signal was measured by flow cytometry (BD Accuri C6 plus). CHO-K1 N1-Gal4 and ligand-lacking wells were used as a negative control. The measurements represent the mean fluorescent intensity as percentage of Notch activation±s.d. of three biological replicates. Notch activation was reference-subtracted from a well coated with 0.5% BSA containing CHO-K1 N1-Gal4 cells. Gating strategies for this experiment are detailed in FIG. 13A.

Chain of Notch1 (P46531 19-1664 limits assumed): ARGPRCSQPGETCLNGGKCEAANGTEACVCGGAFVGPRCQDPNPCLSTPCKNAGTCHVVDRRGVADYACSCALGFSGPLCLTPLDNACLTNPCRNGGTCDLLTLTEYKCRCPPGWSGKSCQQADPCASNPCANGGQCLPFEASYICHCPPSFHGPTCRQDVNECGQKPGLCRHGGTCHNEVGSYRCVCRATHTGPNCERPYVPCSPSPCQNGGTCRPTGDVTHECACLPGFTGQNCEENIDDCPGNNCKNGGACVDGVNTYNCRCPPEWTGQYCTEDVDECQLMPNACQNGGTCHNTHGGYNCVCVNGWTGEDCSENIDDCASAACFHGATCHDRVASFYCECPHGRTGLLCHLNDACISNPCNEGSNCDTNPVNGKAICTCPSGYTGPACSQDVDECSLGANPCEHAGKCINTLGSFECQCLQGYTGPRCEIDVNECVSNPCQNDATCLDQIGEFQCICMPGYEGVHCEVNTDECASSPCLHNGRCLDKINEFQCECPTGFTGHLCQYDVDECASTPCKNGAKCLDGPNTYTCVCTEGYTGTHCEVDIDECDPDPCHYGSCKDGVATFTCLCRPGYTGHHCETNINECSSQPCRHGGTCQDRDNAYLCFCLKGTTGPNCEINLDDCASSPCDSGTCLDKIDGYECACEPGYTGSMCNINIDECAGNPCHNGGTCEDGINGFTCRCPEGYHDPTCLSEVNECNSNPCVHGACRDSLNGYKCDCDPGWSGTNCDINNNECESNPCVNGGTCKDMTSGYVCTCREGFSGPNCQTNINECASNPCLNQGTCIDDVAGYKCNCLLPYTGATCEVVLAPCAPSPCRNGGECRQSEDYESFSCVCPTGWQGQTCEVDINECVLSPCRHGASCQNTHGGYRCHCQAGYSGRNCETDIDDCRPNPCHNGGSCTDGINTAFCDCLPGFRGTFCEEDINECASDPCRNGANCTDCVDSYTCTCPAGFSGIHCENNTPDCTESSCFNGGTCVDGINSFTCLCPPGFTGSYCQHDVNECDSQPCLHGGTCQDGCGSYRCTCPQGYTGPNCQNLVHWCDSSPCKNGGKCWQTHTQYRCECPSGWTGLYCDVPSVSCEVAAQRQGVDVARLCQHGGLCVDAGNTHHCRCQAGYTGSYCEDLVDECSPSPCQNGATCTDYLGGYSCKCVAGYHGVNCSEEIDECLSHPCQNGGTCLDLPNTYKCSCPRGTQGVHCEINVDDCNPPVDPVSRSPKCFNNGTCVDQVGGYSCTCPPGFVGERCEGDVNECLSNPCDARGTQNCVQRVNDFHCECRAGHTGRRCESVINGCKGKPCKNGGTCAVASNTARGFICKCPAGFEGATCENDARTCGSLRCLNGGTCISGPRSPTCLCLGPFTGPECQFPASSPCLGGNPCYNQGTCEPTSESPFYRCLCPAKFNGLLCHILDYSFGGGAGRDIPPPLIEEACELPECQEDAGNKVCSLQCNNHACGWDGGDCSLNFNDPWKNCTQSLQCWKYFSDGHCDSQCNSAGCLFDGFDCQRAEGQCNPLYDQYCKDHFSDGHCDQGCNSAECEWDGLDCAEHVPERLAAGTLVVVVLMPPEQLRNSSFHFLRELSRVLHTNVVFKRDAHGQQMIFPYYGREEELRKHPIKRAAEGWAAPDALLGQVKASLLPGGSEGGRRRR
Chain of Notch1 (P46531 1665-1756 limits assumed): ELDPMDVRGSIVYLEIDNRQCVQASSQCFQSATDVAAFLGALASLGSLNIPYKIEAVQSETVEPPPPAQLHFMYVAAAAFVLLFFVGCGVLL
Chain of Notch3 (Q9UM47 197-505 limits assumed): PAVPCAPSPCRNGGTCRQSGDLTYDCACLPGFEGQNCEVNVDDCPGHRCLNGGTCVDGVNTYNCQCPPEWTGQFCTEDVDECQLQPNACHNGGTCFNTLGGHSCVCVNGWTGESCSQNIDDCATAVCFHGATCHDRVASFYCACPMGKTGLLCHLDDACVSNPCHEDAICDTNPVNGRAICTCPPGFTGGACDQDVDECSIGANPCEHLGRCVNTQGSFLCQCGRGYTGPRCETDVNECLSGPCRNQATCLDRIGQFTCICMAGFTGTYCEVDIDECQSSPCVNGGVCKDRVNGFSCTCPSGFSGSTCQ

Row | Molecule | reduction in reporter signal (Notch3) | increase in Tm relative to WT DLL4 (ΔTm) [1] [°C] | melting temperature (Tm) [1] [°C] | EC50 (Notch1 [2]) [nM] | maximum level of Notch1 activation, oriented coupling versus non-specific adsorption (Notch1 [2]) | Emax greater than that induced by WT DLL4 (Notch1 [3]; non-specific adsorption) [%] | EC50 for Notch1 activation (Notch1 [3]) [ng/mm^2] | improvement in Notch activation efficiency vs WT DLL4 (Notch1 [3]; ratio of EC50, non-specific adsorption) [fold]
1 | B1 | 70-85% | 11 | 58 | 1.7 | higher maximum level | 20 | 0.009 | 250
2 | B2 | 10-40% |  | 47 | 16 | higher maximum level |  | 2.3 | 
